No end group written: not given here.

Test [1] deals with T1, human C5aR1 (complement component 5a receptor 1) (human, UniProt P21730 1-350, sulfated tyrosines at positions 11 and 14).
T1 construct: on Expi293 cells, C5aR1-U937 cells or human neutrophils in flow cytometry; also called CD88; C5a anaphylatoxin chemotactic receptor 1
T1 chain: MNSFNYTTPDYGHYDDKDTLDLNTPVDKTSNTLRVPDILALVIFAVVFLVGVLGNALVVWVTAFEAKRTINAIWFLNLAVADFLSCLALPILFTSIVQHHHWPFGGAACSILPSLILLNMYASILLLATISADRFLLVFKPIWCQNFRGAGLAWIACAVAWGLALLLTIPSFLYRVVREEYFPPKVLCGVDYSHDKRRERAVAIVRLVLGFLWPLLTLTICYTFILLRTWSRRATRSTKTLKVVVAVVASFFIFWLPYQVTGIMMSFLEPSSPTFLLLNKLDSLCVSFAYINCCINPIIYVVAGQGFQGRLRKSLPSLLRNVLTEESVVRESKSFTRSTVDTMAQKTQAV
Briefly: flow cytometry on human neutrophils, titration 10^-7.5 to 10^-12 M. The method, then: Exemplary anti-C5aR1 antibodies generated as described in Example 1 were tested for binding to human neutrophils. Briefly, cryopreserved human neutrophils were obtained from Asarte Biologics.
On the technique in general: In flow cytometry, cells or beads pass a laser one at a time.

Test [2] addresses T2, biotinylated cyclic ECL2 peptide of C5aR1 (human, also: biotinylated, position not given here, cyclic, way of cyclisation not given here).
T2 peptide: RVVREEYFPPKVLC
As to the kind of experiment: BLI, peptide on streptavidin sensor. From the text: The epitope mapping was undertaken, using biolayer interferometry, on a series of exemplary anti-C5aR1 antibodies generated as described in Example 1. Briefly, for each antibody, biotinylated peptides representing ECL2, the N-terminus with tyrosine sulfation, and the N-terminus without tyrosine sulfation, were immobilized in a streptavidin biosensor. Subsequently, the biosensor was exposed to […] of antibody to detect antibody binding to the immobilized peptide. The results of the epitope mapping study are shown in Table 4 (“+” indicates binding to the listed peptide; “−” indicates lack of binding to the listed peptide).
(In BLI a coated tip is dipped into the sample, and binding shifts an interference pattern.)

B1: antibody 332 (antibody, V domains shown)
VH: QVQLQQSDAELVKPGASVKISCKASGYTFTDHSIHWVKQRPEQGLEWIGYISPGNGDIKYDEKFKGKATLTADTSSSTAYMQLNSLTSEDSAVYFCKGPLLLRWRYFYPVDYWGQGTTVTVSS
VL: DIVMTQSQKFMSSAVGDRVTITCKASQNVGAAVAWYQQKPGQSPKLLLYSASIRYTGVPDRFTGSGSGTDFTLTISNIQSEDLAHFFCQQYNSFPLTFGGGTKLEIK
As to B1, the binding result in test [1] is given as “binds”; in test [2], “no binding (tested: 10 gg/mL (so in the source))”.

B2: antibody 335 (antibody, V domains shown)
VH: QVQLQQSDAALVKPGASVKISCKASGYTFTDHAIHWVKQRPEQGLEWIGYISPGNGDIKYNEKFKGKATLTADKSSSTAYMQLNSLTSEDSAVYFCKGPLLVRWRYYITMDYWGQGTTVTVSS
VL: DIVMTQSQKFMSTTVGDRVSITCKASQNVGAAVVWYQQKPGQSPKLLIYSASYRYTGVPDRFTGSGSGTDFTLTISNMQSEDVADYFCQQYNSFPLTFGGGTKLEIK
Consider B2, for which the binding result in test [1] was “binds”; in test [2], “no binding (tested: 10 gg/mL (so in the source))”.

(Values after patent US20240076398A1 (VISTERRA, published 2024).)
